Results published in PMC7160673, “A Degenerate Peptide Library Approach to Reveal Sequence Determinants of Methyllysine-Driven Protein Interactions” (Frontiers in Cell and Developmental Biology, 2020).
Where no end group is shown, it is not given here. [ ]: non-standard residue; d: D form. The star is where a group is joined. 5FAM = O=C1OC2(c3ccc(O)cc3Oc3cc(O)ccc32)c2ccc(C(=O)*)cc21; Lys(Me3) = C[N+](C)(C)CCCC[C@H](N)C(=O)O

T1: Chromodomain Y-like protein 2 chromodomain
T1 construct: Chromodomain Y-like protein 2 (CDYL2), chromodomain; also called CDYL2 chromo; source: E. coli BL21, purified (glutathione resin); not shown: GST, N-terminal, kept
T1 sequence (Q8N8U2 whole entry, species assumed, looked up): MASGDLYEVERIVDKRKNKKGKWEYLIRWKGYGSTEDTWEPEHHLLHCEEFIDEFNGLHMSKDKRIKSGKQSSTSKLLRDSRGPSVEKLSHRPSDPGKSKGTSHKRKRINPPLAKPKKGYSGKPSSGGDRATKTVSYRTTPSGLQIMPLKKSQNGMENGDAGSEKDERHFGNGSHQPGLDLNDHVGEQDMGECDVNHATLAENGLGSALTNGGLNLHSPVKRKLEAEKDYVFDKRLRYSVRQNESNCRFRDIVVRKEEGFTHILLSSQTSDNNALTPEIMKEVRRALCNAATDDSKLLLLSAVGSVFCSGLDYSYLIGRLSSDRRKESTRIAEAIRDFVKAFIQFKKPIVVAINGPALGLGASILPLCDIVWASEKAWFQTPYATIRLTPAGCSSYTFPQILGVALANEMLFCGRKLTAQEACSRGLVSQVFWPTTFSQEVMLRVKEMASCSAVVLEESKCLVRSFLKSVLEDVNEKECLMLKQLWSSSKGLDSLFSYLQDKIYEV

T2: M Phase Phosphoprotein 8 chromodomain (UniProt Q99549 55-116)
T2 construct: M-phase phosphoprotein 8 (MPP8), chromodomain; also called MPP8 chromo; MPP8; source: E. coli BL21, purified (glutathione resin); not shown: GST, N-terminal, kept
T2 sequence: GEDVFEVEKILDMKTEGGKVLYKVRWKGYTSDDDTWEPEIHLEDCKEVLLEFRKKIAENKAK


How the values were obtained:
[1] = target: T1, Chromodomain Y-like protein 2 …; assay: fluorescence polarisation; protein serially diluted with 10 nM FAM peptide; 25 mM HEPES pH 7.5, 100 mM NaCl, 0.05% NP-40; anisotropy fitted by specific binding with Hill slope; conditions: both partners purified
[2] = target: T2, M Phase Phosphoprotein 8 chromodomain; assay: as above; conditions: both partners purified

Kd [1] [µM] | Kd [2] [µM] | Binder
0.1 ± 0.0066 | – | 5FAM-WAY[Lys(Me3)]TGK (also: flanking glycines, number not given here) [FAM-WAY(Kme3)TGK peptide]
– | 6 | 5FAM-WSK[Lys(Me3)]RRR (also: flanking glycines, number not given here) [FAM-WSK(Kme3)RRR peptide]
